Where two headings read alike, the source gives them in different places. Blank lines part the entries; values can stand above or below the binder they belong to.
Assays:
[1] = target: T1, Recombinant Mouse PD-L1/CD274 Protein (mPD-L1-his) (mouse, UniProt Q9EP73 19-238); test: ELISA, plate coated with mouse PD-L1-his
T1 construct: range 19-238; ACRO Biosystem PD1-M5220; also called mouse PD-L1-his

[2] = target: T2, Recombinant Human PD-L1/CD274 Protein (hPD-L1-his) (human, UniProt Q9NZQ7 19-238); test: ELISA on coated human PD-L1-his
T2 construct: range 19-238; ACRO Biosystem PD1-H5229, made in HEK293; also called human PD-L1-his; hPD-L-his
Method: (§1) High-binding clear polystyrene 96-well plates (Nunc) were coated with 100 μl/well of a 0.5 μg/ml human or cynomolgus (cyno) PD-L1-his in high pH coating buffer and incubated overnight at 4° C. Then plates were washed once on an automatic plate washer using washing buffer (PBS+0.1% Tween 20 (Sigma)). 200 μl of blocking buffer (PBS+1% BSA+1% normal goat serum+0.05% Tween-20) was added to each well and incubated for 2 hours at room temperature. Then add serial diluted antibodies with dilution buffer (PBS+1% BSA+1% normal goat serum+0.01% Tween-20) and incubated for 1 hour at RT. The plates were then washed 3 times using the method described above. […] After that the ELISA plates were allowed to incubate for 60 min at RT then plates were washed 3 times with 250 μl/well washing buffer. Finally, 100 μl/well of TMB was added to each well and the reaction was terminated using 0.64M H₂SO₄. The plates were read on a Thermo Multiscan FC at 450 nM (see FIG. 6A to 6E).

[3] = target: T3, Cynomolgus PD-L1/CD274 with His tag (cPD-L1-His) (cynomolgus); test: ELISA on coated cynomolgus PD-L1-his
T3 construct: range 19-238; ACRO Biosystem PD1-C52H4; also called cynomolgus (cyno) PD-L1-his; cynomolgis PD-L1-his
Method: as §1

[4] = target: T2, Recombinant Human PD-L1/CD274 Protein …; test: ELISA on coated hPD-L1-his; bound at pH7.4, then 2 h at pH5.5
[5] = target: T2, Recombinant Human PD-L1/CD274 Protein …; test: ELISA on coated hPD-L1-his; bound at pH7.4, then 2 h at pH7.4
[6] = target: T2, Recombinant Human PD-L1/CD274 Protein …; test: ELISA on coated hPD-L1-his
[7] = target: T4, human PD-L1 expressed on cells (human, UniProt Q9NZQ7 19-290); test: FACS, IFN-gamma stimulated HCC827 cells
T4 construct: whole, on cells; also called hPD-L1 expressed on HCC827; hPD-L1 on MC38/hPD-L1 cells
Method: Log phase IFN-γ stimulated (500U/ml for 2 days) HCC827 cells were collected and resuspended in blocking buffer (5% BSA+PBS). 2×10\hat{ }5 cells were added to each tube and then washed once with PBS (1500 rpm, 5 mins, RT). The 100 μl/tube serial diluted biotinylated PD-L1 antibodies with blocking buffer were added into corresponding tubes and incubate at 4° C. for 1 hr.

[8] = target: T2, Recombinant Human PD-L1/CD274 Protein …; test: ELISA on coated hPD-L1-his; bound at pH7.4, then 2 h at pH5.5; remark: listed apart in the source
[9] = target: T2, Recombinant Human PD-L1/CD274 Protein …; test: ELISA on coated hPD-L1-his; bound at pH7.4, then 2 h at pH7.4; remark: listed apart in the source
[10] = target: T4, human PD-L1 expressed on cells; test: blocking FACS on HCC827 cells; blocked ligand: biotinylated hPD-1-N297A
Method: Log phase IFN-γ stimulated (500U/ml for 2 days) HCC827 cells were collected and resuspended in blocking buffer (5% BSA+PBS). 2×10\hat{ }5 cells were added to each tube and then washed once with PBS (1500 rpm, 5 mins, RT). The 100 μl/tube serial diluted PD-L1 antibodies (see FIG. 8) with blocking buffer were added into corresponding tubes and incubate at 4° C. for 1 hr. […] After washing for three times with PBS, 100 μl/tube streptavidin-PE 1:200 (EBiosciences) in blocking buffer was added to each tube. The cells were incubated at 4° C. for 1 hr and then washed twice with PBS, followed by resuspending cells in 150 μl PBS for each sample. The cells were then transferred into FACS tube and the binding of the antibodies to the cells were detected with flow cytometry (ACEA Bioscience Novocyte).

[11] = target: T5, Human PD-L1/CD274 with C-Fc Tag (hPD-L1-Fc) (human, UniProt Q9NZQ7 19-238); test: blocking ELISA on coated hPD-L1-Fc; blocked ligand: biotinylated hPD-1-N297A
T5 construct: range 19-238; ACRO Biosystem PD1-H5258, made in HEK293; also called human PD-L1-Fc; not shown: Fc fragment of human IgG1 at C-terminus

hPD-L2-Fc = target: T6, hPD-L2-Fc (human, UniProt Q9BQ51 20-219); test: ELISA, plate coated with hPD-L2-Fc
T6 construct: Acrobiosystems PD2-H5251; also called human PD-L2 protein; not shown: Fc tag
T6 sequence (looked up): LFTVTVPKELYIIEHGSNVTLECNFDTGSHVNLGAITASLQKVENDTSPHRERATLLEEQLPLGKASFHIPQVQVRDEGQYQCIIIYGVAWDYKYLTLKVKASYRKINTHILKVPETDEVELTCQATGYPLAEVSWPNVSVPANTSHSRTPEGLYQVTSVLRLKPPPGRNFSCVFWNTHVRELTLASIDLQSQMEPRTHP

[12] = target: T7, wild type human PD-L1-Fc protein (SEQ ID NO: 107) (human); test: ELISA on captured PD-L1-Fc, as in Example 18A
T7 construct: Extracellular human PD-L1 (amino acid 19-238) with Fc fragment of human IgG1, expressed in 293T cells and used as culture supernatant; also called WT PD-L1; wild-type PD-L1

[13] = target: T8, human PD-L1-Fc mutant E58A (human); test: ELISA on captured PD-L1-Fc, as in Example 18A
T8 construct: Position 58 counts on native human PD-L1 (NP_054862.1); also called E58A mutant

[14] = target: T4, human PD-L1 expressed on cells; test: FACS, IFN-gamma stimulated HCC827 cells; remark: listed apart in the source
Method: Log phase IFN-γ stimulated (500U/ml for 2 days) HCC827 cells were collected and resuspended in blocking buffer (5% BSA+PBS). 2×10\hat{ }5 cells were added to each tube and then washed once with PBS (1500 rpm, 5 mins, RT). The 100 μl/tube serial diluted PD-L1 antibodies purified from hybridoma supernatant in blocking buffer were added into corresponding tubes and were incubated at 4° C. for 1 hr. The cells were then washed twice with 1 ml PBS, followed by adding 100 μl/tube of 2nd antibody (1:400 anti-mIgG (H+L)-PE, Cell signaling) in blocking buffer. The cells were incubated at 4° C. for 1 hr and then washed twice with PBS, followed by resuspending cells in 150 μl PBS for each sample. The cells were then transferred into FACS tube and the bindings of the antibodies to the cells were detected using flow cytometry (BD Accuri C6) (see FIG. 5A).

[15] = target: T2, Recombinant Human PD-L1/CD274 Protein …; test: ELISA, purified mouse antibody on coated hPD-L1-his
Method: High-binding clear polystyrene 96 well plates (Nunc) were coated with 100 μl/well of a 0.5 μg/ml hPD-L1-his in high pH coating buffer and incubated overnight 4° C. Then plates were washed once on an automatic plate washer using washing buffer (PBS+0.1% Tween 20 (Sigma)). 200 μl of blocking buffer (PBS+1% BSA+1% normal goat serum+0.05% Tween-20) was added to each well and incubated 2 hours at room temp. Then add serially diluted purified antibodies with dilution buffer (PBS+1% BSA+1% normal goat serum+0.01% Tween-20) and incubate for 1 hour at RT. The plates were then washed 3 times using the method described above. 100 μl/well of a solution of HRP conjugated goat anti-mouse Fc antibody (Abcam) in dilution buffer was then added to each well of the plate. After that the ELISA plates were allowed to incubate for 60 min at RT then plates were washed 3 times with 250 μl/well washing buffer. Finally, 100 μl/well of TMB was added to each well and was terminated using 0.64M H₂SO₄. The plates were read on a Thermo Multiscan FC at 450 nM (see FIG. 3).

[16] = target: T4, human PD-L1 expressed on cells; test: blocking FACS on HCC827 cells; blocked ligand: biotinylated hPD-1-N297A; remark: listed apart in the source
Method: Log phase IFN-γ stimulated (500U/ml for 2 days) HCC827 cells were collected and resuspended in blocking buffer (5% BSA+PBS). 2×10\hat{ }5 cells were added to each tube and then washed once with PBS (1500 rpm, 5 mins, RT). […] The cells were incubated at 4° C. for 1 hr and then washed twice with PBS, followed by resuspending cells in 150 μl PBS for each sample.

[17] = target: T1, Recombinant Mouse PD-L1/CD274 Protein …; test: ELISA, 20 ug/ml antibody on coated mouse PD-L1 (his-tagged per text, mPD-L1-Fc per sheet title)
Outline: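 Wells coated overnight at 4 °C with 1 μg/ml mouse PD-L1-his, blocked 2 h with BSA/goat serum buffer; purified hybridoma mouse antibodies at 20 μg/ml bound 1 h at RT. Detection by HRP goat anti-mouse Fc (60 min, RT), TMB, acid stop, absorbance at 450 nm.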

T2 sequence (Q9NZQ7 other isoform, or with tags, fused parts or gaps limits assumed): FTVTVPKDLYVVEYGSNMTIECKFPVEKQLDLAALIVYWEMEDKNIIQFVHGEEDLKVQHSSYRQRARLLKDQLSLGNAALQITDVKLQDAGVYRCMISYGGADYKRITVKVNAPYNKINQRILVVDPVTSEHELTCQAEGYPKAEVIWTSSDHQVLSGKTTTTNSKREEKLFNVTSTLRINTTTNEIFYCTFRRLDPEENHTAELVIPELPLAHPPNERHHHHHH
T8 sequence (chain, as listed by the source E58A E58A limits assumed): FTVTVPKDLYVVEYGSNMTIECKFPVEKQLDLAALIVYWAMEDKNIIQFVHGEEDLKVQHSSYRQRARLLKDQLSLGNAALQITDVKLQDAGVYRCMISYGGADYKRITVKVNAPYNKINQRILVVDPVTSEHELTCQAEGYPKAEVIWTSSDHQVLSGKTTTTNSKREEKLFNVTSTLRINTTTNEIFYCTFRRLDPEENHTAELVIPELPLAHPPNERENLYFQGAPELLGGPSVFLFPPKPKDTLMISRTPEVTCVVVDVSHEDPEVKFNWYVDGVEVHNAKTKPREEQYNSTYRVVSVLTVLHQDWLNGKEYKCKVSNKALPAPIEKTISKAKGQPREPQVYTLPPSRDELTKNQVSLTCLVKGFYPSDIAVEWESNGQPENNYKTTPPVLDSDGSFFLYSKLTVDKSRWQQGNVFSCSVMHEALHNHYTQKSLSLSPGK
T7 sequence (chain, as listed by the source limits assumed): as the sequence (chain, as listed by the source E58A E58A limits assumed) above, with A40E counted along it
T4 sequence (Q9NZQ7 19-290): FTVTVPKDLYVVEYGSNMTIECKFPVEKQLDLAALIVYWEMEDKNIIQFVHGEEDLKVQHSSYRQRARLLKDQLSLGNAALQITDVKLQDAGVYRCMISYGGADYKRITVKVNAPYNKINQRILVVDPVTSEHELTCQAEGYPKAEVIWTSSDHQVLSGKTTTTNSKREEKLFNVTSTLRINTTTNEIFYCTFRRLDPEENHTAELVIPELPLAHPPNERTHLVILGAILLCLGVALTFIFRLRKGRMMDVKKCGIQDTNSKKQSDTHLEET
T1 sequence (Q9EP73 other isoform, or with tags, fused parts or gaps limits assumed): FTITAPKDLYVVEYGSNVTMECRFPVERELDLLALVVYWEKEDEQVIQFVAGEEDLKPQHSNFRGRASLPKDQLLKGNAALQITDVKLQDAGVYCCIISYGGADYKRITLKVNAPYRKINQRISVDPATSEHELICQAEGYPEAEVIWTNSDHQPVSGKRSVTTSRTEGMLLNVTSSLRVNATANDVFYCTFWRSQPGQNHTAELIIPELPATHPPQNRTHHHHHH
T5 sequence (Q9NZQ7 19-238 limits assumed): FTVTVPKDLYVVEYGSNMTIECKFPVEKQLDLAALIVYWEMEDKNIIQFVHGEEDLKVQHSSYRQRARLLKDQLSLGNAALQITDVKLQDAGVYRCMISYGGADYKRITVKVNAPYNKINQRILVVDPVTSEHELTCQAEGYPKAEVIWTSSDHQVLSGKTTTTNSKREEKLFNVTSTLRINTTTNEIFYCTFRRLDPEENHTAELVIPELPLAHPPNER

binding result [1]: no binding (tested: 20 ug/ml)
EC50 (read off the curve) [2]: ~0.01 µg/mL
EC50 (read off the curve) [3]: ~0.01 µg/mL
EC50 (read off the curve) [4]: ~0.02 µg/mL
EC50 (read off the curve) [5]: ~0.01 µg/mL
B1: 4B6-C (antibody, V domains shown)
VH: EVQLQQSGPELVKPGASVKISCKASGYVFTDYYMNWVKQSHGKSLEWIGDINPNNGGTSYNHKFKGKATVTVDKSSRTAYMELLSLTSEDSAVYYCVKWGDGPFAYWGQGTLVTVSA
VL: DIVMTQSQKFMSTSVGDRVSITCKASQNVGAAVAWYQQKPGQSPKLLIYSASNRYTGVPDRFTGSGSGTDFTLTISNMQSEDLADYFCQQYSNYPTFGSGTKLGIK
notes: Mouse variable regions fused to a human IgG1 constant region; also called 4B6-chimeric; chimeric antibody 4B6

EC50 (read off the curve) [6]: ~0.004 µg/mL
EC50 (read off the curve) [7]: ~0.04 µg/mL
EC50 (read off the curve) [8]: ~0.03 µg/mL
EC50 (read off the curve) [9]: ~0.02 µg/mL
IC50 (read off the curve) [10]: ~0.04 µg/mL
IC50 (read off the curve) [11]: ~0.05 µg/mL
B2: 23F11-C (antibody, V domains shown)
VH: QVQLQQPGAELVKPGASVKLSCKASGYSFTTYWMHWVKQRPGQGLEWIGMIQPNSGGTKYNEKFKKKATLTVDKSSTTASMELSSLTSEDSAVYYCARGAGTVDYFDYWGQGSTLTVSS
VL: DIVLTHSPVSLAVSLGQRATISCRASESVDIYGNSFMHWYQQKPGQPPKLLIYRASNLESGIPARFSGSGSRTDFTLTINPVEADDVATYYCQQSTEDPYTFGGGTKLEIK
notes: Mouse variable regions fused to a human IgG1 constant region; also called 23F11-chimeric; chimeric antibody 23F11

binding result (hPD-L2-Fc): no binding (tested: 2 ug/ml)
Mean OD450 [12]: 1.92 OD450
OD450 nM of sample-1 [12]: 1.9 OD450
OD450 nM of sample-2 [12]: 1.94 OD450
% of binding of Ab to E58A mutant vs. that to WT PD-L1 [13]: 17.2%
Mean OD450 [13]: 0.33 OD450
OD450 nM of sample-1 [13]: 0.35 OD450
OD450 nM of sample-2 [13]: 0.309 OD450
EC50 (read off the curve) [14]: ~0.1 µg/mL
EC50 (read off the curve) [15]: ~0.08 µg/mL
IC50 (read off the curve) [16]: ~0.2 µg/mL
binding result [17]: no binding (tested: 20 ug/ml)
B3: 22C9 (antibody, V domains shown)
VH: QVQLQQSGAELVKPGASVKLSCKASGYTFTSYWMHWVWQRPGQGLEWIGMIHPNSDITNCNENFKHTVTLTVDKSSSTAYMQLSSLTSEDSAVFYCARSDGSSYWYFDVWGTGTTVTVSS
VL: SIVMTQTPKFLSVSAGDRVTITCKAGQSVNNDVAWYQQKPGQSPKLLIYYASNRYTGVPDRFTGSGYGTDFTFTISTVQAEDLAVYFCQQDFSSPLTFGAGTKLELK
notes: Mouse monoclonal from hybridoma; also called mouse monoclonal antibody 22C9

Reference: patent US20210009693A1 (MABSPACE BIOSCIENCES SUZHOU, published 2021)
